# Columns and labels:
# [1] = Pharmacokinetics in mice expressing human PCSK9 by AAV; format: in vivo, mouse; conditions: 30 mg/kg intravenous
# Method: Serum concentrations of antibody were determined using a sandwich ELISA assay. Polyclonal goat anti-human Fc IgG and an HRP-labeled goat anti-human IgG Fcγ polyclonal reagent (both from Jackson ImmunoResearch Laboratories Inc, West Grove, Pa.) were used as the capture and the detection antibody, respectively. A 3,3′,5,5′ tetramethylbenzidine (TMB) substrate solution reacted with peroxide, and in the presence of horse radish peroxidase (HRP), created a colorimetric signal that was proportional to the amount of the respective anti-PCSK9 antibody bound by the capture reagent. The intensity of the color (optical density, OD) was measured at 450 nm minus 650 nm using a microplate reader (Spectra Max Plus 384). Data was analyzed using Watson version 7.0.0.01 (Thermo Scientific, Waltham, Mass.) data reduction package with a Logistic (auto-estimate) regression of separately prepared standard curves. The lower limit of quantification (LLOQ) for the assay was […].
# Non-compartmental analysis (NCA) was performed on serum concentrations using the pre-determined nominal time points for each subject using WinNonlin Enterprise, version 5.1.1 (Pharsight, St. Louis, Mo.). […] NCA parameters reported include: apparent half-life (t½), area under the serum concentration-time curve from time zero to the last measured concentration (AUC0-t), and apparent serum clearance (CL0-t). […]
# [2] = target: T1, human PCSK9 (Homo sapiens, UniProt Q8NBP7, E620G/G670E/V474I); test: Serum lipids in C57BL/6 mice expressing human PCSK9 by AAV; format: in vivo, mouse; conditions: 30 mg/kg IV bolus
# T1 construct: made in house
# Method: Briefly, 120 C57BL/6 mice expressing human PCSK9 were generated by infection with an engineered adeno associated virus (AAV) coding for human PCSK9, resulting in elevated levels of circulating low density lipoprotein cholesterol (LDL-C). Serum cholesterol analysis was performed using the Cobas Integra 400 plus chemistry analyzer (Roche Diagnostics, Indianapolis, Ind.). Animals were randomized into treatment groups with similar levels of non-HDL-C (LDL-C and VLDL-C), HDL-C and TC. On treatment day 0 (T=0) a subset of mice was euthanized and serum collected to establish that day's baseline levels. Remaining mice were then administered 11F1, 8A3 or anti-keyhole limpethemocyanin (KLH) IgG2 control antibody at 30 mg/kg. via tail vein injection. At days 1 through 5 following injection, subsets of mice were euthanized and whole blood was collected from the vena cava and allowed to coagulate for 30 minutes at room temperature. Following centrifugation at 12,000 rpm with a bench top centrifuge for 10 minutes, serum was collected. Serum cholesterol analysis was performed using the Cobas Integra 400 plus chemistry analyzer.
# All cholesterol results were expressed as the mean±standard error of the mean. All pharmacokinetic data were expressed as the mean±standard deviation. The p value of 0.05, determined by 1-way ANOVA was used as a threshold to determine statistical significance between the anti-KLH IgG2 control antibody injected animals and those dosed with anti-PCSK9 antibody at the same time point.
# [3] = Viscosity measurement of 11F1 formulations; format: physicochemical; conditions: 10 mM sodium acetate
# Method: Concentration determination was then carried out by measuring absorbance at A280 using an Agilent 8453 Spectrophotometer (Santa Clara, Calif.). Protein concentration was calculated using the appropriate extinction coefficient. The appropriate amount of buffer was then added to the sample to dilute it back down to the desired concentration and another A280 was performed to obtain the final concentration for the experiment. Excipients were added individually to the 11F1 formulations samples derived from the high concentration stock solutions.
# Viscosity was measured using Brookfield LV-DVII cone and plate viscometer (Middleboro, Mass.) with a CPE-40 spindle with matching sample cup temperature regulated by a circulating water bath at constant 25° C. 500 μL of sample was added to sample cup with positive displacement pipettor. […] At this point the rotational speed was stopped and a viscosity reading was generated by Rheocalc software.
# High concentration protein formulations were sometimes measured using a different type of viscometer, an Anton Paar Physica Model MCR300 with a CP50-1 spindle. A 600 uL sample is used in this instrument and Rheoplus software version 3.4 was use to calculate solution viscosity. There was not a large difference in measurements using either viscometer.
# T1 sequence (Q8NBP7 153-692 V474I/E620G/G670E): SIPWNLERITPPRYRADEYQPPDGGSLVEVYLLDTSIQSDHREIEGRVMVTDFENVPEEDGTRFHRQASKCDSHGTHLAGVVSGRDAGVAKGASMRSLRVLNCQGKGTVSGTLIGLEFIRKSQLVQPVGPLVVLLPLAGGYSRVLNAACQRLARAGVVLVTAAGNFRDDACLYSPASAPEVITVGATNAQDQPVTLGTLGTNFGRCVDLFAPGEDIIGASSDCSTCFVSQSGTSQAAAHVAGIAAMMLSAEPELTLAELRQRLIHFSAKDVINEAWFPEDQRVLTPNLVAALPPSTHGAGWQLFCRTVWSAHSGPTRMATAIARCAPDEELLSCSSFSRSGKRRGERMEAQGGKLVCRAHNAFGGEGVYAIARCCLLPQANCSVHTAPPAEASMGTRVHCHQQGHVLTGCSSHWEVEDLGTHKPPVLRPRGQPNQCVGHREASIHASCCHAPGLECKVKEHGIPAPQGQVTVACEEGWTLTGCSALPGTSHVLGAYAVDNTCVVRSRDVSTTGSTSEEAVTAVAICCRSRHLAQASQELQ
substance,measurement,setting,value
"11F1: anti-PCSK9 ABP, light/heavy variable region SEQ ID NO 465/463 [Antibody 11F1]","AUC0-t exposures, estimated CL0-t and apparent half-lives of 11F1 vs 8A3",[1],equivalent
same,lowering of HDL-C vs control animals,[2]; any time point,No significant lowering of HDL-C
same,lowering of TC vs control animals,[2]; day 4 only,22%
same,maximum lowering of serum non-HDL-C vs control animals,"[2]; significant at days 1, 2 and 4 post-injection",59%
same,Viscosity @ 25 C.,"[3]; 145 mg/mL, 9% Sucrose 0.01% PS 20, pH 5.2",14 cP
same,Viscosity @ 25 C.,"[3]; 147 mg/mL, 150 mM Methionine, 3% Sucrose, 0.01% PS 20, pH 5.2",13 cP
same,Viscosity @ 25 C.,"[3]; 170 mg/mL, 250 mM Praline, 0.01% PS 20, pH 5.0",18 cP
same,Viscosity @ 25 C.,"[3]; 172 mg/mL, 9% Sucrose 0.01% PS 20, pH 5.2",23 cP
same,Viscosity @ 25 C.,"[3]; 186 mg/mL, 9% Sucrose 0.01% PS 20, pH 5.2",45 cP
same,Viscosity @ 25 C.,"[3]; 191 mg/mL, 9% Sucrose 0.01% PS 20, pH 5.2",53 cP
same,Viscosity @ 25 C.,"[3]; 192 mg/mL, 150 mM Methionine, 3% Sucrose, 0.01% PS 20, pH 5.2",31 cP
same,Viscosity @ 25 C.,"[3]; 196 mg/mL, 250 mM Praline, 0.01% PS 20, pH 5.0",36 cP
same,Viscosity @ 25 C.,"[3]; 211 mg/mL, 9% Sucrose, 100 mM Arginine, pH 5.2",26 cP
same,Viscosity @ 25 C.,"[3]; 211 mg/mL, 9% Sucrose, 150 mM Alanine, pH 5.2",43 cP
same,Viscosity @ 25 C.,"[3]; 211 mg/mL, 9% Sucrose, 150 mM Glycine, pH 5.2",45 cP
same,Viscosity @ 25 C.,"[3]; 211 mg/mL, 9% Sucrose, 150 mM Serine, pH 5.2",48 cP
same,Viscosity @ 25 C.,"[3]; 211 mg/mL, 9% Sucrose, 150 mM sodium chloride, pH 5.2",62 cP
same,Viscosity @ 25 C.,"[3]; 211 mg/mL, 9% Sucrose, pH 5.2",73 cP
same,Viscosity @ 25 C.,"[3]; 211 mg/mL, pH 5.2",58 cP
same,Viscosity @ 25 C.,"[3]; 212 mg/mL, 150 mM Methionine, 3% Sucrose, 0.01% PS 20, pH 5.2",54 cP
same,Viscosity @ 25 C.,"[3]; 212 mg/mL, 250 mM Praline, 0.01% PS 20, pH 5.0",47 cP
same,Viscosity @ 25 C.,"[3]; 224 mg/mL, 9% Sucrose 0.01% PS 20, pH 5.2",133 cP
same,Viscosity @ 25 C.,"[3]; […], 150 mM Methionine, 3% Sucrose, 0.01% PS 20, pH 5.2",18 cP
same,Viscosity @ 25 C.,"[3]; […], 9% Sucrose 0.01% PS 20, pH 5.2",8 cP

# Reference: patent US12612465B2, “Formulations comprising PCSK9 specific monoclonal antibodies” (Amgen Inc., priority 2012, dated 2026)
